Measurements reported in patent US20260250404A1 (Genmab, published 2026).

Assays:
[1] = molecular target: T1, human FcγRIa on the cell surface (transfected CHO-S cells, M0/M1 macrophages, hMDM, FcγRI effector reporter … (human, UniProt P12314 16-374)); assay: flow cytometry on CHO-S cells transiently expressing human FcγRIa, PE goat anti-human IgG F(ab')2, % PE+ cells
T1 construct: whole, on cells; also called CD64

[2] = molecular target: T2, recombinant cynomolgus monkey CD27-Fc fusion protein (R&D systems, Cat #9904-CD-100) (cynomolgus monkey, UniProt P26842 21-192 (human entry), limits assumed); assay: BLI (Octet HTX); cyno CD27-Fc on AR2G sensor, antibody monovalent for CD27 in solution; 1:1 model
T2 construct: Bought protein; also called Cyno CD27-Fc; not shown: Fc part of the fusion; not described
T2 chain: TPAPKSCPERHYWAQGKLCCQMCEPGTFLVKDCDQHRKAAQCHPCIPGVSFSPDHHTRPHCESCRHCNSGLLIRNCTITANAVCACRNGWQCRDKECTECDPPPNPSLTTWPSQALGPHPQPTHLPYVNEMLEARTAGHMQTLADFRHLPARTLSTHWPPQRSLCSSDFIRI

[3] = molecular target: T3, recombinant His-tagged human CD27 protein (Sino Biological, Cat #10039-H08B1) (human, UniProt P26842 20-192); assay: BLI (Octet HTX); CD27-His on anti-Penta-HIS sensor, antibody monovalent for CD27 in solution; 1:1 model
T3 construct: Bought protein; also called Human CD27-His; not shown: His tag

T1 sequence (P12314 16-374): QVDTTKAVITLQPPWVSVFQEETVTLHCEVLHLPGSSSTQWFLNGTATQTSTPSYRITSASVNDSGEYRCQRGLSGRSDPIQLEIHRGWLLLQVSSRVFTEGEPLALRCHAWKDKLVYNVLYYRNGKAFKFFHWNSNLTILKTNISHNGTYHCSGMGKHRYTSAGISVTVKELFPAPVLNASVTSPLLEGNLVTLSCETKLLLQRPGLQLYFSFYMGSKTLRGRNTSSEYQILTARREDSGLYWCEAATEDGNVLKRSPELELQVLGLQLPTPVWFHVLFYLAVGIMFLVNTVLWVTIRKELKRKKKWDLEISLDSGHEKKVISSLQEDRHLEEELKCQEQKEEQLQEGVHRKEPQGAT

B1: dostarlimab (antibody)
chain 1: not shown
chain 2: DIQLTQSPSFLSAYVGDRVTITCKASQDVGTAVAWYQQKPGKAPKLLIYWASTLHTGVPSRFSGSGSGTEFTLTISSLQPEDFATYYCQHYSSYPWTFGQGTKLEIKRTVAAPSVFIFPPSDEQLKSGTASVVCLLNNFYPREAKVQWKVDNALQSGNSQESVTEQDSKDSTYSLSSTLTLSKADYEKHKVYACEVTHQGLSSPVTKSFNRGEC
For B1, the “EC50 (read off the curve)” value [1] was roughly 0.2 µg/mL.

B2: IgG1-CD27-A as bispecific antibody with one CD27-specific Fab-arm and one non-binding Fab-arm (bispecific antibody)
chain 1: QVQLMQSGSELKKPGASVKVSCRASGYTFTTYAMNWVRQAPGQGPEWMGWINTNTGNPTYAQGFTGRFVFSLDTTVTTTYLQISSLKAEDTAVYFCAREAGSFDYWGQGTLVTVSS
chain 2: QSALTQPASVSGSPGQSITISCTGTSSDVYYYNYVSWYQQHPGRAPKLVIYDVSNRPSGVSNRFSGSKSGNTASLTISGLRAEDEADYYCSSYTVNRVWVFGGGTKLTVL
chain 3: QVQLVQSGAEVKKPGASVKVSCQASGYRFSNFVIHWVRQAPGQRFEWMGWINPYNGNKEFSAKFQDRVTFTADTSANTAYMELRSLRSADTAVYYCARVGPYSWDDSPQDNYYMDVWGKGTTVIVSSASTKGPSVFPLAPSSKSTSGGTAALGCLVKDYFPEPVTVSWNSGALTSGVHTFPAVLQSSGLYSLSSVVTVPSSSLGTQTYICNVNHKPSNTKVDKRVEPKSCDKTHTCPPCPAPEFEGGPSVFLFPPKPKDTLMISRTPEVTCVVVAVSHEDPEVKFNWYVDGVEVHNAKTKPREEQYNSTYRVVSVLTVLHQDWLNGKEYKCKVSNKALPAPIEKTISKAKGQPREPQVYTLPPSREEMTKNQVSLTCLVKGFYPSDIAVEWESNGQPENNYKTTPPVLDSDGSFFLYSRLTVDKSRWQQGNVFSCSVMHEALHNHYTQKSLSLSPG
chain 4: EIVLTQSPGTLSLSPGERATFSCRSSHSIRSRRVAWYQHKPGQAPRLVIHGVSNRASGISDRFSGSGSGTDFTLTITRVEPEDFALYYCQVYGASSYTFGQGTKLERKRTVAAPSVFIFPPSDEQLKSGTASVVCLLNNFYPREAKVQWKVDNALQSGNSQESVTEQDSKDSTYSLSSTLTLSKADYEKHKVYACEVTHQGLSSPVTKSFNRGEC
B2 gave a Kd [2] of 120 nM, a koff [2] of 0.02 s⁻¹ and a kon [2] of 170000 M⁻¹ s⁻¹. The Kd [3] was 130 nM, the koff [3] was 0.018 s⁻¹ and the kon [3] was 130000 M⁻¹ s⁻¹.
